Patent publication US20110136811A1, “PROKINETICIN 1 RECEPTOR” (published 2011)

Target: rat PK1 receptor, endogenous in rat ileum (rat, UniProt Q8R416)
Assay: cell-based or functional assay

- EC50 of the early contractile response of isolated rat ileum: 87.8 nM
- EC50 of the late contractile response of isolated rat ileum: 72.4 nM
B1: PK1 ligand preparation (recombinant human Prokineticin 1 after enterokinase removal of the N-terminal FLAG tag) (ligand)
chain: AVITGACERDVQCGAGTCCAISLWLRGLRMCTPLGREGEECHPGSHKVPFFRKRKHHTCPCLPNLLCSRFPDGRYRCSMDLKNINF
